Blank lines part the entries; values can stand above or below the binder they belong to. Ends that are not written are not given here. * marks the point of attachment. Biotin = O=C1N[C@H]2[C@H](CS[C@H]2CCCCC(=O)*)N1
How the values were obtained:
Conditions in all cases: both partners purified
[1] = biological target: T1, GST-GRASP55 FL (GST-tagged GRASP55 full-length, aa 2-451) (mouse, UniProt Q99JX3 2-451); experiment: ITC; GRASP55 protein in the cell (70-150 uM), JAM peptide in the syringe (800-2250 uM); 298 K (25 °C); 100 mM NaPO4 buffer pH 7.5; MicroCal ITC200; one-site fit
T1 construct: Gateway cloning into pDEST15; also called mGRASP55 Full-length (FL); Golgi reassembly stacking protein of 55 kDa; source: E. coli BL21 (DE3), purified (Glutathione sepharose 4B); not shown: GST, N-terminal, kept

[2] = biological target: His-GRASP55 PDZ12 (Histidine-tagged PDZ tandem of GRASP55, aa 2-208) (mouse, UniProt Q99JX3 2-208); experiment: as above
[3] = biological target: T2, GST-GRASP55 FL (mGRASP55 Full-length, aa 2-451) (mouse, UniProt Q99JX3 2-451); experiment: AlphaScreen or HTRF + ITC; the text names HTRF or ITC for the values without telling which; GST-GRASP55 FL with JAM peptides; HTRF: biotinylated peptide competed with unlabeled peptide, 0.05 M HEPES, 0.15 M NaCl, 0.25% BSA pH 7.3, 18 h, 4°C; ITC: peptide in the syringe, protein in the cell, 100 mM NaPO4 pH 7.5, 25°C
T2 construct: GRASP55, mouse, aa 2-451, called full-length (FL); Forward primers with and without a thrombin cleavage site were used; also called full-length GRASP55 protein; source: E. coli BL21 (DE3), purified (Glutathione sepharose 4B); not shown: GST, N-terminal, kept

[4] = biological target: T2, GST-GRASP55 FL (mGRASP55 Full-length, …); experiment: AlphaScreen or HTRF; GST fusion protein, anti-GST antibody coupled to terbium cryptate (1 nM), streptavidin-d2 (1.25 nM), biotinylated peptide (6 nM), competed with non-biotinylated peptide or the compound Graspin; 0.05 M HEPES, 0.15 M NaCl, 0.25% BSA pH 7.3, 18 h, 4°C
[5] = biological target: GRASP55 PDZ12, untagged PDZ tandem of GRASP55 (mouse, UniProt Q99JX3 2-208); experiment: ITC; GRASP55 protein in the cell (70-150 uM), JAM peptide in the syringe (800-2250 uM); 298 K (25 °C); 100 mM NaPO4 buffer pH 7.5; MicroCal ITC200; one-site fit

stoichiometry N [1]: 0.8
Kd [2]: 14 ± 1 µM
stoichiometry N [2]: 0.9
B1: JAM-A peptide, carboxy-terminal 19-mer (peptide)
peptide: SQPSTRSEGEFKQTSSFLV
notes: Junctional Adhesion Molecule-A (JAM-A), carboxy-terminal 19 amino acids; source: synthetic peptide (Covalab, France)

stoichiometry N [1]: 0.9
Kd [2]: 1.2 ± 0.1 µM
stoichiometry N [2]: 1.3
B2: JAM-B peptide, carboxy-terminal 19-mer (JAM-B_P19) (peptide)
peptide: SKVTTMSENDFKHTKSFII
notes: Junctional Adhesion Molecule-B (JAM-B), mouse, carboxy-terminal 19 amino acids; source: synthetic peptide (Covalab, France)

Kd [3]: 4.9 µM
B3: JAM-B_P19, peptide corresponding to the C-terminal 19-mer of mouse JAM-B (unlabeled) (peptide)
peptide: SKVTTMSENDFKHTKSFII
notes: JAM-B, mouse, C-terminal 19-mer; the homologous non-biotinylated form of the printed biotinylated peptide; also called JAM-B peptide; source: synthetic peptide

binding result [4]: binds
B4: Biotinylated 19-mer peptide of the carboxy-terminal sequence of JAM-B (peptide)
peptide: Biotin-SKVTTMSENDFKHTKSFII
notes: JAM-B, mouse, carboxy-terminal 19 amino acids; source: synthetic peptide (Covalab, France)

binding result [4]: binds
B5: Biotinylated 19-mer peptide of the carboxy-terminal sequence of JAM-A (peptide)
peptide: Biotin-SQPSTRSEGEFKQTSSFLV
notes: JAM-A, carboxy-terminal 19 amino acids; source: synthetic peptide (Covalab, France)

binding result [4]: binds
B6: Biotinylated 19-mer peptide of the carboxy-terminal sequence of JAM-C (peptide)
peptide: Biotin-NYIRTSEEGDFRHKSSFVI
notes: JAM-C, mouse, carboxy-terminal 19 amino acids; source: synthetic peptide (Covalab, France)

Kd [3]: 3.7 µM
B7: JAM-C_P19, peptide corresponding to the C-terminal 19-mer of mouse JAM-C (unlabeled) (peptide)
peptide: NYIRTSEEGDFRHKSSFVI
notes: JAM-C, mouse, C-terminal 19-mer; the homologous non-biotinylated form of the printed biotinylated peptide; also called JAM-C peptide; source: synthetic peptide

stoichiometry N [1]: 1
Kd [2]: 7.1 ± 0.1 µM
stoichiometry N [2]: 1
Kd [5]: 3.8 ± 0.1 µM
stoichiometry N [5]: 1.1
B8: JAM-C peptide, carboxy-terminal 19-mer (JAM-C_P19) (peptide)
peptide: NYIRTSEEGDFRHKSSFVI
notes: Junctional Adhesion Molecule-C (JAM-C), mouse, encoded by Jam3, carboxy-terminal 19 amino acids; source: synthetic peptide (Covalab, France)

Kd [3]: 27 µM
B9: Unlabeled (non-biotinylated) JAM-A carboxy-terminal 19-mer peptide (peptide)
peptide: SQPSTRSEGEFKQTSSFLV
notes: JAM-A, carboxy-terminal 19 amino acids; the homologous non-biotinylated form of the printed biotinylated peptide; source: synthetic peptide

— PMC5472279, “Genetic, structural, and chemical insights into the dual function of GRASP55 in germ cell Golgi remodeling and JAM-C polarized localization during spermatogenesis” (PLoS Genetics, 2017)
